These results are taken from publication PMC2172693.

The target in this experiment is tetramethylrhodamine isothiocyanate-labeled actin (UniProt P68139). Briefly: optical trap.
Substance “heterodimeric heavy meromyosin with one wild-type head and one E470A head (from UniProt P10587;P02607) (complex)” displayed a step duration (τon) of 106 ms.

For “single-headed subfragment-1 with neonatal epitope tag at its COOH terminus (from UniProt P10587;P02607) (complex)”, the step duration (τon) was 189 ms. In turn, “wild-type smooth muscle heavy meromyosin (from UniProt P10587;P02607) (complex)” had a step duration (τon) of 104 ms.
